T1: 6his-SEPT9 (human, UniProt Q9UHD8 2-586)
T1 construct: SEPT9, human, PCR amplified from the GFP-SEPT9_i1 plasmid; the forward primer starts at the second codon (aag aag tct tac tca gga gg), the reverse primer holds the stop codon; also called 6his tagged SEPT9; 6his-tagged SEPT9; source: E. coli, purified (IMAC, approx. 70 % purity; desalted into PBS); not shown: His6, N-terminal, kept
T1 sequence (looked up): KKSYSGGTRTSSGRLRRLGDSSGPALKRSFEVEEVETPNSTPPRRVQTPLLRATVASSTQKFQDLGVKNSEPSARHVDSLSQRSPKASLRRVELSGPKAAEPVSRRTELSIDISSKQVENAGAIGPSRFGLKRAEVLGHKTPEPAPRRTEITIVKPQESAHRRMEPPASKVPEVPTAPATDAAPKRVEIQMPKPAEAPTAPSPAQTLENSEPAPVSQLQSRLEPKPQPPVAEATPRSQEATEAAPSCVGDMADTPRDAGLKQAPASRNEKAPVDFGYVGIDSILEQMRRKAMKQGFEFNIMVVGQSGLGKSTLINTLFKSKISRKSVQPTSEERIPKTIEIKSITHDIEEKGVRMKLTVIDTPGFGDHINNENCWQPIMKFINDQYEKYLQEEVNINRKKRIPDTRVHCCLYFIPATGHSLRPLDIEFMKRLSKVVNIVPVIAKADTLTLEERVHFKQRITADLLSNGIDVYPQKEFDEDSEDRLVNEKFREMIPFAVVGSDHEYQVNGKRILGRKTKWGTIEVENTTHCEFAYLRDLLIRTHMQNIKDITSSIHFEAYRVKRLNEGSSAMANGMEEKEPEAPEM


Target: T1, 6his-SEPT9
Assay: pull-down; GST fusions immobilised on Glutathione Sepharose from crude E. coli extract, incubated with 2 µM 6his-SEPT9 for 1 h in PBS; Western blot with anti-6his antibody; free GST as control
Conditions: both partners purified

binding result	Binder
binds	GST-MYO6_(835-1294) (domain or fragment, UniProt Q9UM54 835-1294, looked up, cloned in pGEX2T; also called C-terminal tail fragment of MYO6; source: E. coli, immobilised on Glutathione Sepharose from the crude extract; not shown: GST, N-terminal, kept) PRIDGLVKVGTLKKRLDKFNEVVSVLKDGKPEMNKQIKNLEISIDTLMAKIKSTMMTQEQIQKEYDALVKSSEELLSALQKKKQQEEEAERLRRIQEEMEKERKRREEDEKRRRKEEEERRMKLEMEAKRKQEEEERKKREDDEKRIQAEVEAQLARQKEEESQQQAVLEQERRDRELALRIAQSEAELISDEAQADLALRRSLDSYPVSKNDGTRPKMTPEQMAKEMSEFLSRGPAVLATKAAAGTKKYDLSKWKYAELRDTINTSCDIELLAACREEFHRRLKVYHAWKSKNKKRNTETEQRAPKSVTDYDFAPFLNNSPQQNPAAQIPARQREIEMNRQQRFFRIPFIRPADQYKDPQSKKKGWWYAHFDGPWIARQMELHPDKPPILLVAGKDDMEMCELNLEETGLTRKRGAEILPRQFEEIWERCGGIQYLQNAIESRQARPTYATAMLQSLLK
binds	GST-MYO1C_(809-1063) (domain or fragment, human, UniProt O00159 809-1063, looked up, MYO1C, C-terminal tail fragment, amino acids 809-1063, amplified from cDNA of human 1306 fibroblast mRNA; cloned in pGEX2T; also called C-terminal tail fragment of MYO1C; source: E. coli, immobilised on Glutathione Sepharose from the crude extract; not shown: GST, N-terminal, kept) LDHVRTSFLLNLRRQLPQNVLDTSWPTPPPALREASELLRELCIKNMVWKYCRSISPEWKQQLQQKAVASEIFKGKKDNYPQSVPRLFISTRLGTDEISPRVLQALGSEPIQYAVPVVKYDRKGYKPRSRQLLLTPNAVVIVEDAKVKQRIDYANLTGISVSSLSDSLFVLHVQRADNKQKGDVVLQSDHVIETLTKTALSANRVNSININQGSITFAGGPGRDGTIDFTPGSELLITKAKNGHLAVVAPRLNSR

— article doi:10.1101/395996, “An interaction network of the human SEPT9 established by quantitative mass spectrometry reveals an interplay with myosin motors” (bioRxiv, 2018)
